Source: patent US20240425556A1, “MYOPEPTIDES AND METHODS OF USE IN TREATING HEART FAILURE” (University of Cincinnati, priority 2021, published 2024)

B1: Amg 23005 (peptide)
peptide: CDQLIKNKIQLEAKVKEMTERLEDEEEMNAELTAKK
B2: Amg 27120 (peptide)
peptide: ETEKEMAMVSLLQAE
B3: Amg 27118 (peptide)
peptide: KLEDECSELKKDIDDLELTLAK
B4: Amg 27117 (peptide)
peptide: DEEEMNAELTAKKR
B5: Amg 23003 (peptide)
peptide: PLLKSAETEKEMANMKEEFGRVKDALEKSEARRKELEEKM
B6: Scramble control Amg 25030 (peptide)
peptide: ETEKEMAMVSLLQAEERCDQDIDDLELTLAK
B7: Amg 27119 (mouse myosin S2 subset) (peptide)
peptide: VKEMTERLEDEEEMNAELTAKK
notes: also called myopeptide
B8: Amg 23006 (peptide)
peptide: VKEMTERLEDEEEMNAELTAKKRKLEDECSELKKDIDDLELTLAK
B9: recombinant S2^126 (proximal 126 amino acid sub-fragment 2 region of myosin) with 6X his-tag (other)
chain: PLLKSAETEKEMANMKEEFGRVKDALEKSEARRKELEEKMVSLLQEKNDLQLQVQAEQDNLNDAEERCDQLIKNKIQLEAKVKEMTERLEDEEEMNAELTAKKRKLEDECSELKKDIDDLELTLAK
notes: The position of the his-tag is unknown; also called mouse myosin S2; not shown: 6X his-tag
B10: PLLKSAETEKEMANMKEEFGRVKDALEKSEARRKELEEKMVSLLQEKNDLQLQVQAEQDNLNDAEERCDQLIKNKIQLEAKVKEMTERLEDEEEMNAELTAKKRKLEDECSELKKDIDDLELTLAK (protein, listed as Mus musculus)
chain: B9 chain
modifications: 6X His tag
notes: recombinant proximal 126 amino acid fragment of myosin S2 with 6X his-tag, expressed in E. coli
B11: recombinant C0-C2 protein (C0, C1 and C2 domains of cardiac myosin binding protein-C) with 6X his-tag (other)
chain: MPEPGKKPVSAFNKKPRSAEVTAGSAAVFEAETERSGVMVRWQRDGSDITANDKYGLAAEGKRHTLTVRDASPDDQGSYAVIAGSSKVKFDLKVTEPAPPEKAESEVAPGAPEEVPAPATELEESVSSPEGSVSVTQDGSAAEHQGAPDDPIGLFLMRPQDGEVTVGGSIVFSARVAGASLLKPPVVKWFKGKWVDLSSKVGQHLQLHDSYDRASKVYLFELHITDAQTTSAGGYRCEVSTKDKFDSCNFNLTVHEAIGSGDLDLRSAFRRTSLAGAGRRTSDSHEDAGTPDFSSLLKKRDSFRRDSKLEAPAEEDVWEILRQAPPSEYERIAFQHGVEACHRPLKRLKGMKQDEKKSTAFQKKLEPAYQVNKGHKIRLTVELADPDAEVKWLKNGQEIQMSGSKYIFESVGAKRTLTISQCSLADDAAYQCVVGGEKCSTELFVKEP
B12: Amg 23004 (peptide)
peptide: RKELEEKMVSLLQEKNDLQLQVQAEQDNLNDAEERCDQLIKNK

Columns and labels:
S2^126-C0-C2 binding = molecular target: T1, S2^126-C0-C2 binding (Homo sapiens, UniProt Q14896); experiment: Solid phase binding assay (SPBA), competition for S2^126-C0-C2 binding; conditions: for ability to compete for S2^126-C0-C2 binding: SPBA, FIGS. 3A and 3B
T1 construct: 6X His; made in house; host or cells: E. coli BL21
T1 sequence (Q14896 1-451 limits assumed): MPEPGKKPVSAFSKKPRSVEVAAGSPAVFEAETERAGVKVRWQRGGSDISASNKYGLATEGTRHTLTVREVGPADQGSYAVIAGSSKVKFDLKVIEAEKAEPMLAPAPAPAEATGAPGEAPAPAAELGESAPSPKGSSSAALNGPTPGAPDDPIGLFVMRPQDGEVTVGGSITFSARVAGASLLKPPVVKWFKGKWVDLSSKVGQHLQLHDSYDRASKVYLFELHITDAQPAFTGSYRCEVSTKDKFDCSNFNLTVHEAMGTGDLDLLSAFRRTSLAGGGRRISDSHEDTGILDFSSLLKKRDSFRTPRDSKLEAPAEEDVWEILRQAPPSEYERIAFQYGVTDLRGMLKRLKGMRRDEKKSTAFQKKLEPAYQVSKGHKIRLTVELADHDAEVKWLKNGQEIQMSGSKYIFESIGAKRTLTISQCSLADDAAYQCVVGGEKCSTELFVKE
Description: Peptides of Table 1 were tested in vitro to determine whether they compete for binding in the interaction between S2^126 and the C0-C2 protein. In these experiments, recombinant S2^126 and C0-C2 protein with 6X his-tags were bacterially expressed in BL21 E. coli and then purified through Talon© metal affinity columns. A solid phase binding assay (SPBA) was then performed, whereby 20 μM of the C0-C2 protein was adsorbed onto wells of a 96-well microtiter plate. Then, 20 μM of S2^126, along with increasing concentrations of selected experimental peptides from Table 1, ranging from 0-20 μM, were added.
The following procedure identified the competitive nature of the tested experimental peptides from Table 1. […] The Alexa Fluor 568© secondary antibody (anti-rabbit) would then bind to the primary antibody to give a relative positive fluorescence of 1.0. Conversely, if the experimental peptide successfully competed with the S2^126-C0-C2 binding. then the S2^126 site would not be available for binding by the primary antibody. Therefore, the secondary antibody would also fail to bind, leading to a decrease in the relative fluorescence below 1.0. As a result, for a non-competing peptide, the relative fluorescence approaches 1.0, as observed by S2^126-C0-C2 binding. For a competing peptide, a decay in the relative fluorescence is observed. This SPBA assay was used to screen peptides for efficacy in disrupting the interaction between S2^126-C0-C2.

[1] = test system: skinned papillary fibers from mouse hearts; experiment: Maximal force (Fmax) of skinned papillary muscle fibers versus calcium concentration; conditions: for effect on muscle / contractile function: summary statement
Description: The ability of the experimental peptides to increase or otherwise affect contractility in the heart muscle system was tested using skinned papillary fibers from mouse hearts. In this ex vivo experiment, cardiac papillary fibers from mouse hearts were isolated and skinned overnight in 1% Triton X-100 low calcium buffer supplemented with ATP, creatine phosphate, and magnesium chloride. Because skinned muscle fibers are devoid of sarcolemma, nuclei, and sarcoplasmic reticulum, the fibers can only contract if supplemented with calcium, magnesium chloride, ATP, and creatine phosphate. This assay allows for the opportunity to screen for compounds or molecules that affect the contractility of the muscle.
Skinned papillary muscle fibers were cycled through buffers containing a constant concentration magnesium chloride, ATP, creatine phosphate, but increasing concentrations of calcium. As the muscle fiber goes from buffers containing low concentrations of calcium to buffers containing high concentrations of calcium, the force developed increases with increasing concentration. Thus, plotting the force produced versus calcium concentration provides a sigmoidal curve, yielding the maximal force produced (Fmax) and the midpoint calcium concentration where the force produced is exactly half of the force produced at high calcium concentration. This is useful for measuring the calcium sensitivity (pCa50) of the muscle fibers.
The experiment and measurement of Fmax, pCa50, and ktr was performed for a muscle in the absence of the experimental peptide and then in the presence of 10 μM and 20 μM of the experimental peptide.

[2] = molecular target: cardiac myosin binding protein-C (cMyBP-C) in skinned papillary muscle fibers from mouse hearts (mouse, UniProt O70468 1-1270); experiment: cell-based or functional assay
[3] = molecular target: B11; experiment: solid phase binding assay; competition with S2^126 on adsorbed C0-C2
[4] = molecular target: B11; experiment: solid phase binding assay; peptide 0-20 µM against 20 µM S2^126 on adsorbed C0-C2
[5] = molecular target: B11; experiment: solid phase binding assay, competition: C0-C2 adsorbed on the plate, 20 µM S2^126 as competitor plus rising peptide; bound S2^126 detected with rabbit anti-S2^126 and Alexa Fluor 568 secondary antibody (Fluorescence Endpoint λ603, relative)
[6] = molecular target: B11; experiment: ITC; 300 µM S2^126 titrated into 20 µM C0-C2
C0-C2 protein = molecular target: T2, C0-C2 protein (Homo sapiens, UniProt Q14896); experiment: Isothermal titrating calorimetry (ITC); format: binding; conditions: 300 μM S2^126 titrated to 20 μM C0-C2 protein; read-out: dissociation constant (kd)
T2 construct: 6X His; made in house; host or cells: E. coli BL21
T2 sequence (Q14896 1-451 limits assumed): as above
Description: Isothermal titrating calorimetry (ITC) was used to validate and verify the results from the SPBA assays of Example 2. In ITC experiments, the heat of binding between two proteins is measured by titrating one protein with the other protein and then measuring the heat released or absorbed through a reference fluid with a constant temperature. By titrating 300 μM of S2^126 to 20 μM of C0-C2 protein, the stoichiometry (η) of 0.98 and dissociation constant (kd) of 4.7 μM for S2^126-C0-C2 binding were determined.
Using the above stoichiometry and dissociation constant values as controls, all of the experimental peptides were titrated at 300 μM with 20 μM of C0-C2 protein and compared with the above S2^126 control.

[7] = molecular target: B9; experiment: ITC; 300 µM S2^126 titrated into 20 µM C0-C2
[8] = at 20 μM peptide, 20 μM S2^126, 20 μM C0-C2 adsorbed

ETEKEMAMVSLLQAEERCDQDIDDLELTLAK [Amg 23050, scramble control peptide, reference compound]
ability to compete for S2^126-C0-C2 binding (S2^126-C0-C2 binding): unable to compete

VKEMTERLEDEEEMNAELTAKK (listed as Mus musculus) [Amg 27119]
increase of maximal force produced by the fibers ([1]; peptide 10 μM and 20 μM versus control, particularly at higher calcium concentrations): about 30% | effect on muscle / contractile function [1]: highly effective in improving contractile function | ability to compete for S2^126-C0-C2 binding (S2^126-C0-C2 binding): effectively compete | relative fluorescence (S2^126-C0-C2 binding; at peptide concentrations above 15 μM): 0

CDQLIKNKIQLEAKVKEMTERLEDEEEMNAELTAKK (listed as Mus musculus) [Amg 23005]
effect on muscle / contractile function [1]: successfully improved muscle function | ability to compete for S2^126-C0-C2 binding (S2^126-C0-C2 binding): effectively compete | relative fluorescence (S2^126-C0-C2 binding; [8]): 0

PLLKSAETEKEMANMKEEFGRVKDALEKSEARRKELEEKM (listed as Mus musculus) [Amg 23003]
ability to compete for S2^126-C0-C2 binding (S2^126-C0-C2 binding): unable to compete

RKELEEKMVSLLQEKNDLQLQVQAEQDNLNDAEERCDQLIKNK (listed as Mus musculus) [Amg 23004]
ability to compete for S2^126-C0-C2 binding (S2^126-C0-C2 binding): unable to compete

VKEMTERLEDEEEMNAELTAKKRKLEDECSELKKDIDDLELTLAK (listed as Mus musculus) [Amg 23006]
effect on muscle / contractile function [1]: successfully improved muscle function | ability to compete for S2^126-C0-C2 binding (S2^126-C0-C2 binding): effectively compete | relative fluorescence (S2^126-C0-C2 binding; [8]): 0

B1
maximal force produced by skinned papillary muscle fibers (Fmax) [2]: 13% | rate of force redevelopment (ktr) at pCa 5.7 [2]: 1.5 fold | stoichiometry [3]: 1

B2
relative fluorescence [4]: ~1 relative fluorescence

B3
relative fluorescence [4]: ~1 relative fluorescence

B4
relative fluorescence [4]: ~1 relative fluorescence

B5
relative fluorescence [4]: ~1 relative fluorescence

B6
relative fluorescence [4]: ~1 relative fluorescence

B7
maximal force produced by skinned papillary muscle fibers (Fmax) [2]: ~30% | rate of force redevelopment (ktr) at pCa 5.7 [2]: 2.5 fold | IC50 (read off the curve) [5]: ~6 µM

B8
maximal force produced by skinned papillary muscle fibers (Fmax) [2]: 13% | rate of force redevelopment (ktr) at pCa 5.7 [2]: 1.5 fold | stoichiometry [3]: 1

B9
stoichiometry (η) [6]: 0.98

B10
Kd (C0-C2 protein): 4.7 µM

B11
Kd [7]: 4.7 µM

B12
relative fluorescence [4]: ~1 relative fluorescence
